Measurements reported in paper PMC9205463.

Substrate: Nc1ncnc2c1ncn2[C@@H]1O[C@H](COP(=O)(O)OP(=O)(O)OP(=O)(O)O)[C@@H](O)[C@H]1O
Experiment: purified protein
Conditions: M13 ssDNA effector; ATP 0-4 mM

B1: DDX41 (Homo sapiens) (protein)
chain: MEESEPERKRARTDEVPAGGSRSEAEDEDDEDYVPYVPLRQRRQLLLQKLLQRRRKGAAEEEQQDSGSEPRGDEDDIPLGPQSNVSLLDQHQHLKEKAEARKESAKEKQLKEEEKILESVAEGRALMSVKEMAKGITYDDPIKTSWTPPRYVLSMSEERHERVRKKYHILVEGDGIPPPIKSFKEMKFPAAILRGLKKKGIHHPTPIQIQGIPTILSGRDMIGIAFTGSGKTLVFTLPVIMFCLEQEKRLPFSKREGPYGLIICPSRELARQTHGILEYYCRLLQEDSSPLLRCALCIGGMSVKEQMETIRHGVHMMVATPGRLMDLLQKKMVSLDICRYLALDEADRMIDMGFEGDIRTIFSYFKGQRQTLLFSATMPKKIQNFAKSALVKPVTINVGRAGAASLDVIQEVEYVKEEAKMVYLLECLQKTPPPVLIFAEKKADVDAIHEYLLLKGVEAVAIHGGKDQEERTKAIEAFREGKKDVLVATDVASKGLDFPAIQHVINYDMPEEIENYVHRIGRTGRSGNTGIATTFINKACDESVLMDLKALLLEAKQKVPPVLQVLHCGDESMLDIGGERGCAFCGGLGHRITDCPKLEAMQTKQVSNIGRKDYLAHSSMDF
For B1, the Km was 200 µM and the kcat was 953.6 ± 45.5 s⁻¹.
